Tested on: MS2 coat protein
Experiment: apparent KD of MS2 coat protein; designed switch direction (-1 OFF switch, 1 ON switch): -1; higher = weaker reporter binding
Summary of the method: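 Three titration conditions were used: no input, 200 uM small-molecule ligand, and an oligonucleotide input. In each, SNAP-549-labelled MS2 coat protein was raised from 0.7 or 1.5 nM, doubling, to 3 µM over designed RNA switches transcribed on Illumina chips by stalled E. coli RNA polymerase. Curve fits of normalised cluster fluorescence gave values whose per-design median over clusters is the apparent KD.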

[1] = Eterna round: R95, input ligand: FMN 200 uM
[2] = Eterna round: R95, input ligand: microRNA oligo, concentration not stated
[3] = Eterna round: R95, input ligand: none
[4] = input ligand: microRNA oligo, concentration not stated

AGUUGGCGAGGAUAUACAUGAGGAUCACCCAUGUGAAUAAGAAUAGUGAGGAAGAAAAGUAGAAGGCGCUGACA [Mat - Exclusion 3 - Mod of Salish D36] (puzzle: Exclusion 3)
apparent KD of MS2 coat protein [1]: 237 nM | apparent KD of MS2 coat protein [2]: 39.8 nM | apparent KD of MS2 coat protein [3]: 44.5 nM

GUCAGCUCGUGAGGAUAUAUAUACAUGAGGAUCACCCAUGUAAGAUCAGGCUUCGGCCAAUGUAUAUAGAAGGCACGAGCUGAU [ENG2/11-A2] (Eterna round: R96, puzzle: Exclusion NG 2)
apparent KD of MS2 coat protein (input ligand: FMN 200 uM): 847 nM | apparent KD of MS2 coat protein [4]: 695 nM | apparent KD of MS2 coat protein (input ligand: none): 1120 nM

AAUAAUUGUGACUUGGGUGACAUGAGGAUCACCCAUGUCACAAGCUUGUUGCUCGCCUUAUAAUUAACCCAUGUCAC [LRO Sensor-off var1-26 mod of Stov1-13-A1 by Brourd] (Eterna round: R97, puzzle: Sensor, turn-off variant 1)
apparent KD of MS2 coat protein (input ligand: FMN 200 uM): 70.5 nM | apparent KD of MS2 coat protein (input ligand: none): 80.6 nM

UACCUGAGGCAAAGCUUUAGGCUUACAUGAGGAUCACCCAUGUAGGAUAUGGUAGGCUUUGCUUACCAGAAGGACAUGGAAAUU [Mat - Exclusion NG 3 - Mod of JL - D22] (Eterna round: R96, puzzle: Exclusion NG 3)
apparent KD of MS2 coat protein (input ligand: FMN 200 uM): 64.3 nM | apparent KD of MS2 coat protein [4]: 18 nM | apparent KD of MS2 coat protein (input ligand: none): 19.1 nM

UCGGCGCGAGGAUAUGCGGCUUGUGCUUCGGGCCCUCGCGUACAUGAGGAUCACCCAUGUAGAAGGCGCGCCGC [Apr-15 SS2-44] (puzzle: Exclusion 2)
apparent KD of MS2 coat protein [2]: 53.8 nM

GGUUCGAAAGUGAGGAUAUGCUGGUCCUUGGAUCAGCAGAAGGCACAUGAGGAUCACCCAUGUGGUAACGGACC [Mat - Exclusion 4 - Eli Mod - D37] (Eterna round: R97, puzzle: Brourd's mod of Exclusion 4)
apparent KD of MS2 coat protein (input ligand: FMN 200 uM): 122 nM | apparent KD of MS2 coat protein (input ligand: none): 25.2 nM

ACAUGUCAUCGAGGAUAUUGUACACAUGAGGAUCACCCAUGUACUCGGUUGCUCUAGCAUGCGUUCGAGAAGGCGAUGUACAUU [Ex NG2 #98] (Eterna round: R96, puzzle: Exclusion NG 2)
apparent KD of MS2 coat protein (input ligand: FMN 200 uM): 52 nM | apparent KD of MS2 coat protein [4]: 88.8 nM | apparent KD of MS2 coat protein (input ligand: none): 144 nM

CCAUCGAGUGUGAGGAUAUGCUGGUCCUUGGAUCAGCAGAAGGCACAUGAGGAUCACCCAUGUGGAGACGGUGG [JL bmx4 3.18] (puzzle: Brourd's mod of Exclusion 4)
apparent KD of MS2 coat protein [2]: 44.3 nM

AAUAACAGAGGAUAUACUAUUUUAUGUAUUUAUUAUUUUGAACAUGAGGAUCACCCAUGUAGAAGGCUGAAUGA [JMF 62] (puzzle: Exclusion 2)
apparent KD of MS2 coat protein [2]: 24.4 nM

UGUACGAUGCGUGCUGACAUGCGUCGUGCAGCAGGUGAUACAUGAGGAUCACCCAUGUCCUCAUUUGCUCGUCUUGU [SL-sv3-2.11 JL mod] (puzzle: Sensor v3, turn-off variant 2)
apparent KD of MS2 coat protein [1]: 82.5 nM | apparent KD of MS2 coat protein [2]: 267 nM | apparent KD of MS2 coat protein [3]: 85.6 nM

GUAUAGCGAGGAUAUACAUGAGGAUCACCCAUGUGAUCCUUAGGCUGUACAAGCCAAUGUAGAAGGCGCAAAUU [jl-ex3.4.59 ViennaUCT mod] (Eterna round: R97, puzzle: Exclusion 3)
apparent KD of MS2 coat protein (input ligand: FMN 200 uM): 75.7 nM | apparent KD of MS2 coat protein (input ligand: none): 147 nM

UCGCUCCGUGUAGGAUAUCGCCGUACCACUCGGCGAGAAGGACAUGAGGAUCACCCAUGUAUGUUAUUAUCACGUGUGGCGCGC [Design 52] (Eterna round: R96, puzzle: Exclusion NG 1)
apparent KD of MS2 coat protein (input ligand: FMN 200 uM): 33.5 nM | apparent KD of MS2 coat protein [4]: 19 nM | apparent KD of MS2 coat protein (input ligand: none): 18.7 nM

GUGCAACAUGAGGAUCACCCAUGUCAGGAUAUGCGAAUUUCAUCAAAAGAUGAAAUUUGCAGAAGGGACUAUAC [Omei Ex1 A22] (Eterna round: R97, puzzle: Exclusion 1)
apparent KD of MS2 coat protein (input ligand: FMN 200 uM): 67.4 nM | apparent KD of MS2 coat protein (input ligand: none): 38.5 nM

CAUAUAGUAGUCAGGAUAUGCGAAUAUAUAAUUAAGUAGAAGGGACAUGAGGAUCACCCAUGUAUAUUGUAAAG [EX-4 Malc #2] (puzzle: Brourd's mod of Exclusion 4)
apparent KD of MS2 coat protein [1]: 26.9 nM | apparent KD of MS2 coat protein [2]: 26.1 nM | apparent KD of MS2 coat protein [3]: 28.4 nM

CCGGAAAUAGAGGAUAUAGUACUGGAUACAGUACUAGAAGGCUAUACAUGAGGAUCACCCAUGUGUCCUACCGG [Fiskers Ex 6 - 62] (puzzle: Exclusion 6)
apparent KD of MS2 coat protein [2]: 13.9 nM

CUCGUGGUGAAGGAUAUCCGCGAGAAAAUAAAAGGAGAAGGUCACACAUGAGGAUCACCCAUGUGAUGAAGAAA [Anesanza] (puzzle: Exclusion 6)
apparent KD of MS2 coat protein [1]: 16.4 nM | apparent KD of MS2 coat protein [2]: 11.6 nM | apparent KD of MS2 coat protein [3]: 11.9 nM

AGUACUAACACGAAAGUGUUAGUACUAUAAGCUUGUGUAACAUGAGGAUCACCCAUGUCCUCAUAAGCUCGUCUUAU [Mat - Sensor v3 - Turn-off var 2 - D100] (puzzle: Sensor v3, turn-off variant 2)
apparent KD of MS2 coat protein [1]: 58.3 nM | apparent KD of MS2 coat protein [2]: 131 nM | apparent KD of MS2 coat protein [3]: 61.2 nM

AAACCCUGAGGAUAUACAUAACAACAAAGCCUCACAUGCCAACAUGAGGAUCACCCAUGUAGAAGGCAGGCCAA [Mod R3 Insanara 13 - Jieux - Exclusion 2] (Eterna round: R97, puzzle: Exclusion 2)
apparent KD of MS2 coat protein (input ligand: FMN 200 uM): 19.2 nM | apparent KD of MS2 coat protein (input ligand: none): 10.1 nM

UACAUGAGGAUCACCCAUGUUUUGUCGUGUAUGGUAUUUAUCUAGGAUAUCAAUGAAUUUAUUUAUGAGAAGGAGAAUAUUAAU [JMF's solution 37] (Eterna round: R96, puzzle: Exclusion NG 3)
apparent KD of MS2 coat protein [4]: 30.7 nM

AAGAAGCUAGGAUAUCACACUGACAACAUGAGGAUCACCCAUGUAGGUGAUCGGUUAGCUUGAGAAGGAGCGGAGG [Laedanes] (puzzle: Exclusion 5)
apparent KD of MS2 coat protein [1]: 83.5 nM | apparent KD of MS2 coat protein [2]: 46.9 nM | apparent KD of MS2 coat protein [3]: 78.3 nM

GAAAAGGUAGGAUAUACGAAGAAAAAGGGUAGAAAAAAAACACAUGAGGAUCACCCAUGUAGAAGGACCAAAAG [salish99_ex2_r3_028] (puzzle: Exclusion 2)
apparent KD of MS2 coat protein [1]: 54.4 nM | apparent KD of MS2 coat protein [2]: 23.8 nM | apparent KD of MS2 coat protein [3]: 20.2 nM

GUUAGUUAAGGAUAUACAGGGAGCUGCGGCGUCUCGCCGCAACAUGAGGAUCACCCAUGUAGAAGGUAGCCGUU [JL ViennaUCT Enbibi mod 8] (puzzle: Exclusion 2)
apparent KD of MS2 coat protein [2]: 53.2 nM

GAUCAUGCAGGAUAUACAUGGAACAUUAAAUCAUGAAUUCUACAUGAGGAUCACCCAUGUAGAAGGGCAUGAUC [Omei Ex2 A17] (Eterna round: R97, puzzle: Exclusion 2)
apparent KD of MS2 coat protein (input ligand: FMN 200 uM): 169 nM | apparent KD of MS2 coat protein (input ligand: none): 72.1 nM

GCAGCAACUCUAAUUAAAACCACAUGAGGAUCACCCAUGUCUCAGGAUAUGGUCUGGAUUACAGGCCAGAAGGGAGAAAGCUGC [Eli exng3 - 051] (Eterna round: R96, puzzle: Exclusion NG 3)
apparent KD of MS2 coat protein (input ligand: FMN 200 uM): 15.9 nM | apparent KD of MS2 coat protein [4]: 14.9 nM | apparent KD of MS2 coat protein (input ligand: none): 17 nM

CGCUGGACAGGAUAUGUUCUUGGGCACUUGAGGAUCACCCAAGUCAUCAAGAACUCAGGCACAGAAGGGUUUAUGG [salish99_ex5_r4_018] (Eterna round: R97, puzzle: Exclusion 5)
apparent KD of MS2 coat protein (input ligand: FMN 200 uM): 41.5 nM | apparent KD of MS2 coat protein (input ligand: none): 18.9 nM

CUGAGGUAGCGGUCCUAUGACAUGAGGAUCACCCAUGUGCCUUGCUACAAGCUUUUUGCUCGUUUUAUGAUUCUCGG [JL Atriat mod 10] (puzzle: Sensor v3, turn-off variant 1)
apparent KD of MS2 coat protein [1]: 72.8 nM | apparent KD of MS2 coat protein [2]: 64.6 nM | apparent KD of MS2 coat protein [3]: 83.5 nM

ACAUGAGGAUCACCCAUGUAAACAUGAUGGCUGAUGUAGAGCUAGGAUAUGAGUGACUAUCUAUCUCAGAAGGAGCUUGACUGG [Deportation 45 - Jieux - Exclusion NG 3] (Eterna round: R96, puzzle: Exclusion NG 3)
apparent KD of MS2 coat protein (input ligand: FMN 200 uM): 26 nM | apparent KD of MS2 coat protein [4]: 27.1 nM | apparent KD of MS2 coat protein (input ligand: none): 31.4 nM

AGCGGCCGAGGAUAUACAAUCCUCCUGGCAGCCUGUCUGCCACAUGAGGAUCACCCAUGUAGAAGGCGGACCGC [Xelezabi] (puzzle: Exclusion 2)
apparent KD of MS2 coat protein [2]: 128 nM

CAUGCUUCGGCAUGUACAAGCUUUUUGCUCGUCUUAUUAACAUGAGGAUCACCCAUGUUAAUGAGACCUCAUGUAUU [Sensor v3 - turn-off variant 2 - 8] (puzzle: Sensor v3, turn-off variant 2)
apparent KD of MS2 coat protein [1]: 13.6 nM | apparent KD of MS2 coat protein [2]: 16.7 nM | apparent KD of MS2 coat protein [3]: 11.4 nM

AGUACUAUCACGAAAGUGAUAGUACAAUAAGCUUGUGAAACAUGAGGAUCACCCAUGUCCUCAUAAGCUCGUCUUAU [JL turnoff v2 77] (Eterna round: R96, puzzle: Sensor v2, turn-off variant 2)
apparent KD of MS2 coat protein (input ligand: FMN 200 uM): 16.1 nM | apparent KD of MS2 coat protein [4]: 463 nM | apparent KD of MS2 coat protein (input ligand: none): 18.7 nM

CCUCGACAUGAGGAUCACCCAUGUCAGGAUAUUGUGUAUCGGGUUUUUUACCGAAAGGCGAGAAGGGAUGUGUG [LRO-Excl1-11] (puzzle: Exclusion 1)
apparent KD of MS2 coat protein [2]: 15 nM

AAGAAACAUGAGGAUCACCCAUGUCAGGAUAUGAGAAGAAAGAAGAAGAAAGAAGGAAUCAGAAGGGACAAAGG [Ex 1 M6 Mod of Hoglahoo] (puzzle: Exclusion 1)
apparent KD of MS2 coat protein [1]: 45.5 nM | apparent KD of MS2 coat protein [2]: 51.7 nM | apparent KD of MS2 coat protein [3]: 41.8 nM

AUAAGUAUAUAGGAUAUCUAGCUGGAUACAGCUAGAGAAGGAUGUACAUGAGGAUCACCCAUGUAAAUCUCAAU [Ex6/12-A1] (Eterna round: R97, puzzle: Exclusion 6)
apparent KD of MS2 coat protein (input ligand: FMN 200 uM): 18.7 nM | apparent KD of MS2 coat protein (input ligand: none): 15.1 nM

AACGUGUGAGGAUAUGCCGUGCCCUUCCGGAAGGAGCGGGUGCAGAAGGCACAUGAGGAUCACCCAUGUCGGCA [Excls4-V] (puzzle: Exclusion 4)
apparent KD of MS2 coat protein [2]: 31.4 nM
